# The nanobody polyreactivity screen of Harvey et al. (2022)
# Test: yeast display, Sf9 membrane polyspecificity reagent, FACS + sequencing; frameworks hold sequencing errors
# Procedure, shortened: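 Galactose-induced (36–48 hours) yeast carrying a synthetic nanobody display library were exposed to 10% biotinylated, detergent-solubilized Sf9 membrane reagent at 4 °C for 1 hour. FACS followed streptavidin microbead enrichment, using low and high (top ~1%) gates for expression (anti-HA) and reagent binding (streptavidin). Colony PCR, MiSeq 2 × 250 sequencing and CDR-length filtering followed. Labels for polyreactivity reflect the gate of origin.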
row,Sequence,polyreactivity (PSR sort gate)
1,QVQLVESGGGLVHAGGSLRLSCAASGRTFKKYAMGLYRQAPGKERELVAAISWSGGTTYYADSVKGRFTISRDNAKNTVYLQMNSLKPEDTAVYYCAARVSRTGDGYYYYWGQGTQVTVSS,high polyreactivity
2,QVQLVESGGGLVHAGGSLRLSCAASGRTFKVYAMGWYRQAPGKERELVASISRSGGSTYYSDSVKGRFTISRDIAKNTVFLQRNSLKPEDTAVYYCAADFCFYGSRVWEYDYWGQGTQVTVSS,high polyreactivity
3,QVQLVESGGGLVHAGGSLRLSCAASGRTFRAYAMGWYRQAPRKERDLVAAISGGGGSTYYADSVKGRFTISRDNAKNTVYLQMNRLKPEYTAVYYCAVKGTQKLAKYNYWGQGTQVTVSS,high polyreactivity
4,QVQLVESGGGLVHAGGSLRLSCAASGSIFAGYAMGRYRQAPGKERELVAAITSGGRTYYADSVKGRFTISRDNAKNTVYLQMNSLKPEDTAVYYCGKRWYTKTGYDYWGQGTQVTVSS,high polyreactivity
5,QVQLVESGGGLVHAGGSLRLSCAASGSIFPPYAMGWYRQAPVKERELVAAITRSGGSTYYADSVKGRFTISRDNAKNTVYLQLNSLIPEDTAVSDCADRYPGGYGYWGQGTQVTVSS,high polyreactivity
6,QVQLVESGGGLVHAGGSLRLSCAASGSIFTDYAMGWYRQAPGKERELVAVIDIDGSTYYADSVKGRFTISRDNEKNSVYLQMNSLKPEDTAVYYCAAGYTYYSLYGYWGQGTQVTVSS,low polyreactivity
7,QVQLVESGGGLVHAGGSLRLSCAASGSIFTVNAMGWYRQAPGKERELVAAIDGSSGSTNYADSEKGRFTISRDNAKNTVYLQMNSLKPEDTAVYYCAADWSYEYGYWGQGTQVTVSS,low polyreactivity
8,QVQLVESGGGLVHAGGSLRLSCAASGSIFYHYAMGWYRQAPGKERELVAAITWSGGSTYYADSVKGRFTISRDNAKNTVYLQMNSLKPEDTAVYYCATSSNVEFGYWGQGTQVTVSS,low polyreactivity
9,QVQLVESGGGLVHAGGSLRLSCAASGSIFYRYAKGWYIQAPGKERDLVAAITYSGGRTYYADSVKGRFTISRDNAKNSVYLKMNILKPEDTAVYYCAAEKQSYGSPKGYDYWGQGTQVTVSS,low polyreactivity
10,QVQLVESGGGLVHAGGSLRLSCAASGSIFYYYAMGWYRPAPGKERELVAAIYNGGSTYYADSVKGRFTISRDNAKNTVYLEMNSLKPEDTAVYYCNAGYSYWYRDLGYDSWGQGTQVTVSS,low polyreactivity
11,QVQLVESGGGLVHAGGSLRLSCAASGSIYIFNAMGWYRQAPGKEREFVARIRRDSSTYYADSVKGRFTISRDNAKNTVYLQMNSLKPEDTAVYYCAAKRVYRRVELNSWGQGTQVTVSS,low polyreactivity
12,QVQLVESGGGLVHAGGSLRLSCAASGSTFAYNAMGWYRQAPGKERELVDAIDWSDGITYYADSVKGRFTISRDNAKNTVYLQMNSLKPEDTAVYYCAAEDGYTDSRAYGYDYWGQGTQVTVSL,low polyreactivity
13,QVQLVESGGGLVHAGGSLRLSCAASGSTFDPNAMGWYRQAPGKERELVAAISWSGGSTYYADSVKGRFTISRDNAKNTVYLQMNSQKPEYTAVYYCNAQFYVSYSYTNDYWGQGTQVTVSS,low polyreactivity
14,QVQLVESGGGLVHAGGSLRLSCAASGSTFGYYAIGWNRQAPGKERELVAVITGSGGSTYYADSVKGRFTISRDYAKNTVYLQMNSLKPEDTAVYYCAARRWNPTYEYWGQGTQVTVSS,high polyreactivity
15,QVQLVESGGGLVHAGGSLRLSCAASGSTFHRYAMGWYRQAPGKERELVARINGSGGSTYYADSVKGRFTISRDNAKNSVYLQMNSLIPEDTAVYYCAAELDVYVSIGSRFHFDYWGQGTQVTVSS,low polyreactivity
16,QVQLVESGGGLVHAGGSLRLSCAASGSTFIRNAMGWYRQAPGKERELVAAISSSGGRTYYADSVKGRITISRDNAKNTVYVQMNSLKPEDTAVYYCAARYVPPWGRRYYYWGQGTQVTVSS,high polyreactivity
17,QVQLVESGGGLVHAGGSLRLSCAASGSTFPAYAMGWYRQAPGKERELVAGITRGGSTYYADSVKGRFTISRDNAKNTVYLQMNSLKPEDSAVYYCAAYVLPWRGRGQTEYGYWGQGTQVTVSS,low polyreactivity
18,QVQLVESGGGLVHAGGSLRLSCAASGSTFYYNAMGWNRPAPGKETELVARISRSGGSTYADSVKGRFTISRDNAKNTVYLQMNSLKPEDTAVYYCNADAYGTPEFTSYAVRYDYWGQGTQVTVSS,low polyreactivity
19,QVQLVESGGGLVHAGGSLRLSCAASGSTYGGNAMGWYRQAPGKETELVASITRSGGSTYYADSVKGRFTISRDNAKNTVYLQMNSLKPEDTSVYYCAAGKWYRSPWKYDYWGQGTQVTVSS,low polyreactivity
20,QVQLVESGGGLVHAGGSLRLSCAASGTISAYAMGWYRPAPGKERELVAAISYSGGSTYYADSVKGRFTISRDNAKKTVYLQMNSLKPEDTAVYYCNARARWYYPYKTYYYWGQGTQVTVSS,high polyreactivity
21,QVQLVESGGGLVHAGGSLRLSCAASGYTFQWYDMGWYRQAPGKERELVASISWRGGSTYYADSVKGRFTISRDHAKNTVYLQMNSLKPEDTAVYYCAASLWPDYEYDYWGQGTQVTVSS,low polyreactivity
22,QVQLVESGGGLVHAGGSLRLSCAASRFIFYYYALGWYRQAPGKERELVAVITSGGSTNYADSVKGRFTISRDNAKNTVYLQMNSLKPEDTAVYYCAARSRRRDDSWGQGTQVTVSS,high polyreactivity

row,Sequence,polyreactivity (PSR sort gate)
1,QVQLVESGGGLVHAGGSLRLSCAPSGFTLVSYAMGWHRKAPGKEREFDAGITDSGGSTYYADSVKGRYTITRDNAKNTFYLQMNSLKPVDTAVYYCKADFAPWDKQDYPYDYDYWGQGTQVTVSS,low polyreactivity
2,QVQLVESGGGLVHAGGSLRLSCASSGSIFYYYAMGWYRQAPGKERELVASITSSGGTTSYADSVKGRYTISRDNAKNTVYLLMNSLKPEDTAVYYCNAQVYRYRIGYDYWGQCTQVTVSS,low polyreactivity
3,QVQLVESGGGLVHAGGSLRLSCDASGLIFYGYAMGWYRQAPGKERQLVADITYSGGRTYYADSVKGRFSISRDNAKNTVYFQMHSLKAEDTAVYYCNARHRSHSNSQPGWKYVYWGQGTQVTVSS,low polyreactivity
4,QVQLVESGGGLVHAGGSLRLSCSASGSTLRFNAMGWYRQAPGKVREFVATITRRGGSTYYADSEKGRFTISRDNAKNTVYLQMNSLKPEDTAVYYCAADRGGYSVLGGYWGQGTQVTVSS,high polyreactivity
5,QVQLVESGGGLVHAGGSLRLSCSATRSIFLGNAMGWYRQAPGKERELVAAISRSGGSTYYADSVKGRFTISRDNAKNTVYLQMNSLKPEDTAVYYCAAVVSSRVKQFEYWGQGNQVTVSS,high polyreactivity
6,QVQLVESGGGLVHAGGSLRVSCAASGIIFDGNAMGWYRQAPGKERELVAAITASGGSTHYADSVKGRFTISRDNAKNTVYLQMNSLKPEDTAVYYCNKRSRTTGDYDYWGQGTQVTVSS,low polyreactivity
7,QVQLVESGGGLVHAGGSLSLSCAASGIIFPWYTMGWYRKAPGKERELVAAISSGGRTNYADSVKGRFTISRDNATNTVFLQMNSLKQEDTAVYYCGAKYYRDRDWGQGTQVTVSS,high polyreactivity
8,QVQLVESGGGLVHAGGSLSLSCAASGSIFPTNVMGWYRQAPGKERELVAAISANDGSTYYADSVKGRFTISRDNAKNTVYLQMNSLKPEDTAVYYCNQEGYTYRFTWYDYWGQGTQVTVSS,low polyreactivity
9,QVQLVESGGGLVHAGGTLRLSCAASGSIFARYAMGWYRQAPVKERELVAAISRNGGSTYYADSVKGRFTISRDNAKNTVYLQMNSLNPEDTAVYYCAASYYVLYTREYDYWGQGSQVTVSS,low polyreactivity
10,QVQLVESGGGLVHAVGSLRLSCAASGRTFISYAMGWYRQAPGKERELVAAISKYGGRTYYADSVKGRFTISRDNAKNTVYLQKISLKPEDTAVYYCAAVKTYLDYSSTSYDYWGQGTQVTVSS,high polyreactivity
11,QVQLVESGGGLVHDGRSLRLSCSASRRTYRLYAMGLYRQAPGQERELVAAITRGGRTNYADSVMGRFTISRDNAKNTVYLQMNSLKPEDTAVYYCADRYVERHTDYYYWGQGSQVTVSS,low polyreactivity
12,QVQLVESGGGLVHSGGSLRLSCAASGSIFRRNAMGWYIQAPGKERELVAAISASGGRTYADSVKGRFTISRDNAKNTVYLQMNSLKPEDTAVYYCAVRSYWRVDYWGQGTQVTVSS,high polyreactivity
13,QVQLVESGGGLVKAGCSLRLRCAASGGTFSYYAMGLYRQAPGKERELVAAISRSSSRTYYADSVKGRFTISRDNAKNTVFLQMNSLKPEDTAVYYCAADRVSYSGRTPKGQRYDYWGQGTQVTVSS,high polyreactivity
14,QVQLVESGGGLVKAGGRLRLSCAASGSIFKKYAMGWYRQAPGKERELVAAITSGRSTYYADSVKGRFTISRDNAKKTVYLQMNSLKPEDTAVYYCANYRKGSLGSWGQGTQGTVSS,high polyreactivity
15,QVQLVESGGGLVKAGGSIRLSCAASGSIFYRNTMGWYRQAPRKERQLVAAISKTGGSTYYSDSVKGRFTISRDNAKNTVYVQMNSLKPEDTAVYYCNRAPYALRVLCTGIISGHDYWGQGTQVTVSS,high polyreactivity
16,QVQLVESGGGLVKAGGSLRISCAASGRTFGLYAMGWYRQAPGKERELVAAISWGGGRTYYADSVKGRFTISRDNAKNTVYLQMNSLNPEETAVYYCNAVYSPRYYVGGYDYWGQGTLVTVSS,high polyreactivity
17,QVQLVESGGGLVKAGGSLRLSCAASGFIFSLYAMGWYRQAPGKERELVASINRRGTSTFYADSVKGRFTISRDNAKNTVYLQMNSLKPEDTAVYYCNAYPGAAIRSTGRYDYWGQGTQVTVSS,low polyreactivity
18,QVQLVESGGGLVKAGGSLRLSCAASGFIFYIYAMGWYRQAPGKERELVAAITSGGSTYYADSVKGRFTISRDNAKNTVYLQMNSLKPEDTAVYYCAAESYYGYDYWGQGTQVTVSS,low polyreactivity
19,QVQLVESGGGLVKAGGSLRLSCAASGFTFNKYAMGWYRQAPGKERESVAAISSSGGSTRYADSVKGRFTISRDNAKNTVYLQMNSLKPADTAVYYCAVYVTPDSGWWLYDYWGQGTHVTVSS,high polyreactivity
20,QVQLVESGGGLVKAGGSLRLSCAASGFTFYTYTMGWYRQAPGKERELVAVISRSGGSTYYADSVKGRFTISRDNAKNTVYLQMNSLKPEDTAVYYCNAGYWRFIDSYDYWGQGTQVTVSS,high polyreactivity
21,QVQLVESGGGLVKAGGSLRLSCAASGGIFYRNSMGWYRQAPGKERELVAAISWRGGSTYYADSVKGRFTISRDNAKNTVYLQMNSLKPEDTAVYYCAARSVATYRYDYWGQGTQVTVSS,high polyreactivity
